Conditions: phosphorylation at S2808

| Substance | other | structure_or_conformation |
| --- | --- | --- |
| RyR2 (ryanodine receptor type 2): S2808D phosphomimetic | increases | – |
| RyR2 (ryanodine receptor type 2): S2808D phosphomimetic (expressing cells also treated with H2O2; irreversible oxidative modifications retained) | – | changes, RMSD normalized projection = 0.11 (subprimed state) |
